Source: PMC10764318

Columns and labels:
Test in all cases: BLI
[1] = target: WRAIR-5021 (rhesus macaque)
[2] = target: WRAIR-5020 (rhesus macaque)
[3] = target: WRAIR-5004 (rhesus macaque)
[4] = target: WRAIR-5005 (rhesus macaque)
[5] = target: WRAIR-5001 (rhesus macaque | human)
[6] = target: WRAIR-5011 (rhesus macaque)
WRAIR-5011 (rhesus macaque), sequence (VH, as listed by the source, chain 1 of 2): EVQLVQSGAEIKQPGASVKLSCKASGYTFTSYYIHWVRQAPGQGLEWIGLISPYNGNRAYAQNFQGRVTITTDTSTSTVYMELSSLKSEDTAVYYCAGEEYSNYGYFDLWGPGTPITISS
WRAIR-5011 (rhesus macaque), sequence (VL, as listed by the source, chain 2 of 2): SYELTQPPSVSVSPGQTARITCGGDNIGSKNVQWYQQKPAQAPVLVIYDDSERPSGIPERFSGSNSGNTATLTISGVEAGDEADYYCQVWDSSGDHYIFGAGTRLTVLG

WRAIR-5020 (rhesus macaque), sequence (VH, as listed by the source, chain 1 of 2): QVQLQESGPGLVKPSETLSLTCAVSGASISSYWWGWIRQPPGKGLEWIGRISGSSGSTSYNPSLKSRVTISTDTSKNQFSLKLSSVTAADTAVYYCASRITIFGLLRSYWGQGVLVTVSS
WRAIR-5020 (rhesus macaque), sequence (VL, as listed by the source, chain 2 of 2): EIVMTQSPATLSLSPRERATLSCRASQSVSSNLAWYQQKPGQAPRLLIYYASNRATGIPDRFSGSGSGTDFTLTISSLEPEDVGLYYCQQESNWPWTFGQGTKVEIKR
WRAIR-5005 (rhesus macaque), sequence (VH, as listed by the source, chain 1 of 2): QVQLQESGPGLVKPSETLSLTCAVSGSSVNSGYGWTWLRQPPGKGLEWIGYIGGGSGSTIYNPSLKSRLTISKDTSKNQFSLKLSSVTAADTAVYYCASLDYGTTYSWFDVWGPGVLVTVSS
WRAIR-5005 (rhesus macaque), sequence (VL, as listed by the source, chain 2 of 2): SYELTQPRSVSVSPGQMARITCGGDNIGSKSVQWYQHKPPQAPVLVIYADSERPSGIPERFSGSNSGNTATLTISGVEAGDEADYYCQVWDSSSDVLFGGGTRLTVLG
WRAIR-5004 (rhesus macaque), sequence (VH, as listed by the source, chain 1 of 2): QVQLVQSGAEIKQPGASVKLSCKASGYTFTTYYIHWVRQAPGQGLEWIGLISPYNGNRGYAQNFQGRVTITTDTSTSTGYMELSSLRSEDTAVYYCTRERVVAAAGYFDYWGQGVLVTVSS
WRAIR-5004 (rhesus macaque), sequence (VL, as listed by the source, chain 2 of 2): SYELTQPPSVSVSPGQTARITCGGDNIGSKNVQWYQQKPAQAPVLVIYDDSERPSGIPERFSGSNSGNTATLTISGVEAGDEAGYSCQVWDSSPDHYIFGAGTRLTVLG
WRAIR-5021 (rhesus macaque), sequence (VH, as listed by the source, chain 1 of 2): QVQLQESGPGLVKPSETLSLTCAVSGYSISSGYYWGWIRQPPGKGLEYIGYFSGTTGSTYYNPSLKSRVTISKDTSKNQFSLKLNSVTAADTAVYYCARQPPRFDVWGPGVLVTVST
WRAIR-5021 (rhesus macaque), sequence (VL, as listed by the source, chain 2 of 2): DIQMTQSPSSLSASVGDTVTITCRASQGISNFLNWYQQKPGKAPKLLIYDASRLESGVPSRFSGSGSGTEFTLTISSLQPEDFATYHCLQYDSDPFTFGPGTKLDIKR

Substance	Kd [1] [nM]	Kd [2] [nM]	Kd [3] [nM]	Kd [4] [nM]	Kd [5] [nM]	Kd [6] [nM]
SARS-CoV-2 Omicron BA.1 RBD (from UniProt P0DTC2 331-527) (domain or fragment)	8.05	24.1	1.93	14.9	0.23	0.38
SARS-CoV-2 Omicron BA.4/5 RBD (from UniProt P0DTC2 331-527) (domain or fragment)	2.63	34.5	3.1	41.1	0.92	0.42
